Experimental data as given in patent publication US20260327324 (published 2026).
Substitutions are numbered along the chain they refer to. Names and notes keep the numbering of the source.

B1: PRO3477 (37-20-B03-sc09.1 human consensus LCDR2) (antibody)
chain: DIQMTQSPASLSASVGDRVTITCQASQSIGTYLAWYQQKPGKPPKLLIYAASSLQSGVPSRFSGSGSGTDFTLTISSLQPEDFATYYCQSNFYSDSTTIGPNAFGTGTKVTVLGGGGGSGGGGSGGGGSGGGGSEVQLVESGGGLVQPGGSLRLSCAASGFSFNSDYWIYWVRQAPGKGLEWIASIYGGSSGNTQYASWAQGRFTISRDNSKNTVYLQMNSLRAEDTAVYFCARGYVDYGGATDLWGQGTLVTVSS
B2: PRO3478 (37-20-B03-sc09.1 Y42S human consensus LCDR2) (antibody)
chain: B1 chain with Y170S
B3: PRO3733 (54-32-A07-sc06 G51C_T141C A67G_S68G) (antibody)
chain: ALQMTQSPSSLSARVGDRVTIKCQASQSISNYLAWYQQKPGKPPKFLIYDGGDLASGVPSRFSGSGSGRDFTLTISSLQPEDFATYYCQQVYDSNNVENVFGCGTKVTVLGGGGGSGGGGSGGGGSGGGGSQSQLVESGGGLVQPGGSLRLSCAVSGFSLSSYAMGWVRQAPGKCLEYIGYISKIGTTYYASWAKGRFTISKDNSKNTVYLQMNSLRAEDTAVYFCARGSSSGGYLDDGFDPWGQGTLVTVSS
B4: PRO3732 (54-21-H03-sc01 A67G_S68G) (antibody)
chain: DIQMTQSPSSLSASVGDRVTITCQASESIYSSLAWYQQKPGKAPKLLIYLGGTLASGVPSRFSGSGSGTDFTLTISSLQPEDFATYYCQSTDYTTSTHRNSFGTGTKVTVLGGGGGSGGGGSGGGGSGGGGSEVQLVESGGGLVQPGGSLRLSCAASGFSFSTTYYMCWVRQAPGKGLEWIGCTNTASSVRTYYATWAKGRFTISRDNSKNTVYLQMNSLRAEDTAVYYCARDMGFADYALNLWGQGTLVTVSS
B5: PRO2309 (54-32-A07-sc06 G51C_T141C) (antibody)
chain: B3 chain with G51A, G52S
B6: PRO1922 (54-21-H03-sc01) (antibody)
chain: B4 chain with G51A, G52S
B7: PRO3718 (28-21-D09-sc04 A67G_S68G) (antibody)
chain: DIQMTQSPSSLSASVGDRVTITCQSSQSVFSNNYLAWFQQKPGQSPKRLIYSGGTLASGVPSRFSGSGSGTDFTLTISSLQPEDFATYYCLGSYACSSADCYVFGTGTKVTVLGGGGGSGGGGSGGGGSGGGGSEVQLVESGGGLVQPGGSLRLSCAASGFSLSSYDMSWVRQAPGKGLAWIGASYASGPTYYASWAKGRFTISRDNSKNTVYLQMNSLRAEDTATYFCARGGWTGTSHSNIWGQGTLVTVSS
B8: PRO2781 (28-21-D09-sc04) (antibody)
chain: B7 chain with G53A, G54S
B9: PRO1347 (37-20-B03 sc09-IF) (antibody)
chain: IQMTQSPASLSASVGDRVTITCQASQSIGTYLAWYQQKPGKPPKLLIYRAFILASGVPSRFSGSGSGTDFTLTISSLQPEDFATYYCQSNFYSDSTTIGPNAFGTGTKVTVLGGGGGSGGGGSGGGGSGGGGSEVQLVESGGGLVQPGGSLRLSCAASGFSFNSDYWIYWVRQAPGKGLEWIACIYGGSSGNTQYASWAQGRFTISRDNSKNTVYLQMNSLRAEDTAVYFCARGYVDYGGATDLWGQGTLVTVSS
B10: PRO1434 (33-03-G02 Q108A_G109A) (antibody)
chain: DIQMTQSPSSLSASVGDRVTITCQASQSINDYLAWYQQKPGKAPKLLIYKASTLASGVPSRFSGSGSGTDFTLTISSLQPEDFATYYCQAAYIITDIDNVFGTGTKVTVLGGGGGSGGGGSGGGGSGGGGSQVQLQESGPGLVKPSETLSLTCKVSGFSFSSGYDMCWIRQPPGKGLEWIGCVVAGSVDITYYASWAKGRVTISVDSSKNQFSLKLSSVTAADTAVYYCARKDAYSDAFNLWGQGTLVTVSS
B11: PRO4125 (37-20-B03 sc17 A67G_F68G) (antibody)
chain: DIQMTQSPSSLSASVGDRVTITCQASQSIGTYLAWYQQKPGKPPKLLIYRGGILASGVPSRFSGSGSGTDFTLTISSLQPEDFATYYCQSNFYSDSTTIGPNAFGTGTKVTVLGGGGGSGGGGSGGGGSGGGGSQSLVESGGGLVQPGGSLRLSCAASGFSFNSDYWISWVRQAPGKGLEWIASIYGGSSGNTQYASWAQGRFTISKDNSKNTVYLQMNSLRAEDTAVYFCARGYVDYGGATDLWGQGTLVTVSS
B12: PRO3725 (33-03-G02 Q108A_G109A A67G_F68G) (antibody)
chain: B10 chain with A51G, S52G
B13: PRO4112 (19-04-A10-sc11) (antibody)
chain: AFQLTQSPSSLSASVGDRVTITCQASESINSRLAWYQQKPGKPPKLLIYDASDLTSGVPSRFSGRGSGTDFTLTISSLQPEDFATYYCQGYGGSSTTTFGCGTKVTVLGGGGGSGGGGSGGGGSGGGGSQQLVESGGGLVQPGGSLRLSCAASGFSLSSYAMNWVRQAPGKCLEWIGHINAGDIAYYATWAKGRFTISKDNSKNTVYLQMNNLRAEDSAVYFCARGAGGFSTGPFKLWGQGTLVKVSS
B14: PRO4113 (19-04-A10-sc12) (antibody)
chain: B13 chain with Q131S, L132V, N212S
B15: PRO2155 (19-04-A10-sc02) (antibody)
chain: AFELTQSPSSLSASVGDRVTITCQASESINSRLAWYQQKPGQPPKLLIYDASDLTSGVPSRFSGSGSGTDFTLTISSLQPEDFATYYCQGYGGSSTTTFGGGTKLTVLGGGGGSGGGGSGGGGSGGGGSEVQLVESGGGLVQPGGSLRLSCAASGFSLSSYAMNWVRQAPGKGLEWIGHINAGDIAYYATWAKGRFTISRDNSKNTVYLQMNSLRAEDTAVYFCARGAGGFSTGPFKLWGQGTLVTVSS
B16: PRO2062 (55-39-G02-sc02) (antibody)
chain: AQQLTQSPSSLSASVGDRVTITCQASQNVWNNNYLSWFQQKPGKPPKLLIVTASTLASGVSSRFSGSGSGTDFTLTISSLQPEDFATYYCAGGFSGEIRAFGTGTKVTVLGGGGGSGGGGSGGGGSGGGGSQSQLVESGGGLVQPGGSLRLSCAVSGLSLSRNAMSWVRQAPGKGLEWIGIILTSGSTYYASWAKGRFTISKDNSKNTVYLQMNSLRAEDTAVYFCVRGIASSSLKSFWGQGTLVTVSS
B17: PRO4139 (55-38-D07-sc09 A67G_S68G) (antibody)
chain: DVQMTQSPSSLSASVGDRVTITCRASENIYSGLAWYQQKPGKPPKLLIYRGGTLASGVSSRFSGSGSGTDFTLTISSLQPEDFATYYCQGGYYSSSSTYIAFGTGTKVTVLGGGGGSGGGGSGGGGSGGGGSQSVVESGGGLVQPGGSLRLSCAVSGFDLSSYAVSWVRQAPGKGLEWIGIIYPRANTYYASWAKGRFTISKDNSKNTVYLQMNSLRAEDSAVYFCARDRYDSGAYLYTTYFNLWGQGTLVKVSS
B18: PRO4143 (55-38-D07-sc09 G51C A67G_S68G_T141C) (antibody)
chain: B17 chain with T104C, G175C
B19: PRO4135 (55-38-D07-sc09) (antibody)
chain: B17 chain with G51A, G52S
B20: PRO3735 (55-38-D07-sc02 A67G_S68G) (antibody)
chain: DVQMTQSPSSLSASVGDRVTITCRASENIYSGLAWYQQKPGKPPKLLIYRGGTLASGVSSRFSGSGSGTDFTLTISSLQPEDFATYYCQGGYYSSSSTYIAFGTGTKVTVLGGGGGSGGGGSGGGGSGGGGSQSQVVESGGGLVQPGGSLRLSCAVSGFDLSSYAVSWVRQAPGKGLEWIGIIYPRANTYYASWAKGRFTISKDNSKNTVYLQMNSLRAEDTAVYFCARDRYDSGAYLYTTYFNLWGQGTLVTVSS
B21: PRO2060 (55-38-D07-sc02) (antibody)
chain: VQMTQSPSSLSASVGDRVTITCRASENIYSGLAWYQQKPGKPPKLLIYRASTLASGVSSRFSGSGSGTDFTLTISSLQPEDFATYYCQGGYYSSSSTYIAFGTGTKVTVLGGGGGSGGGGSGGGGSGGGGSQSQVVESGGGLVQPGGSLRLSCAVSGFDLSSYAVSWVRQAPGKGLEWIGIIYPRANTYYASWAKGRFTISKDNSKNTVYLQMNSLRAEDTAVYFCARDRYDSGAYLYTTYFNLWGQGTLVTVSS
B22: PRO3734 (55-39-G02-sc02 A67G_S68G) (antibody)
chain: B16 chain with A53G, S54G

Target: PD-L1 (UniProt Q9NZQ7)
Sequence (Q9NZQ7 19-238): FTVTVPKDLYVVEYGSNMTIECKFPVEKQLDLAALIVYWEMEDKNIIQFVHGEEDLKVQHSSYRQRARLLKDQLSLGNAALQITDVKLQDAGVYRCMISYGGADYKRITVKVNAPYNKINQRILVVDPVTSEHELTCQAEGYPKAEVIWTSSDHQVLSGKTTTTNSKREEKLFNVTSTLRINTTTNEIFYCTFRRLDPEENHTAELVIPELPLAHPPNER
Test: SPR

binding result	Binder
no binding	B1
no binding	B2

Target: T1, MSLN (UniProt Q13421)
T1 chain: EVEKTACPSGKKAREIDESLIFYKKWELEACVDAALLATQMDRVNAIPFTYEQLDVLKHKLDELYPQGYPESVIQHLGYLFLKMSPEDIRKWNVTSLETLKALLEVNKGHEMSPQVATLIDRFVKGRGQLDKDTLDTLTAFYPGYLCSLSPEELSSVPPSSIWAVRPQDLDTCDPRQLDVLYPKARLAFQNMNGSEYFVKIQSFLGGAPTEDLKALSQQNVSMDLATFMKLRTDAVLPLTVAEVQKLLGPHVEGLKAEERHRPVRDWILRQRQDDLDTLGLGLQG
Test: SPR

Kd	Binder
1580 pM	B3
172 pM	B4
561 pM	B5
151 pM	B6

Target: T2, CD3e (UniProt P07766)
T2 chain: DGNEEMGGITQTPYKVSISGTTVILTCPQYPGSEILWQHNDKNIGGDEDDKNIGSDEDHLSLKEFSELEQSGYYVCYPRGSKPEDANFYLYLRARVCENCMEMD
Test: SPR

Kd	Binder
5200 pM	B7
5880 pM	B8

Target: PD-L1 (UniProt Q9NZQ7)
Test: SPR
Remark: another data set of the same source

Kd	Binder
10.9 pM	B9
491000 pM	B10
196 pM	B11
491000 pM	B12

Target: HSA (human, UniProt P02768)
Test: SPR

Kd	Binder
174 pM	B13
90.1 pM	B14
2620 pM	B15

Target: ROR1 (UniProt Q01973)
Sequence (Q01973 30-403): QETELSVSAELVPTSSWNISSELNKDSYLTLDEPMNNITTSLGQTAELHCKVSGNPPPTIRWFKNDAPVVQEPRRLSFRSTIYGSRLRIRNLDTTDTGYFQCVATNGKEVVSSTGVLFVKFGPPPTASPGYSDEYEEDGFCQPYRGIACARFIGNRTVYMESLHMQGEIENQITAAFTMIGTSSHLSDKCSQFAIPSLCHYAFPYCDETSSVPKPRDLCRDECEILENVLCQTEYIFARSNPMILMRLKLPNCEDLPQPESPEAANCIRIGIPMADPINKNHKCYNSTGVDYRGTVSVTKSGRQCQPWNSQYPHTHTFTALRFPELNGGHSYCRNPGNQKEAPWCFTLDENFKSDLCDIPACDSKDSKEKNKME
Test: SPR

Kd	Binder
108 pM	B16
212 pM	B17
631 pM	B18
122 pM	B19
336 pM	B20
119 pM	B21
120 pM	B22
